Measurements taken from patent US20200277366A1 (UCB, published 2020).
Values joined by “and” are separate entries in the source; they are usually repeats but may differ in a detail not shown here. Identical values can stand only once. Each block holds one binder with its values, some of them ahead of it.

What was measured:
[1] = target: T1, human TNF-alpha (human, UniProt P01375 77-233); test: SPR (Biacore T200), mouse IgG captured by anti-mouse IgG Fc, human TNF injected at 20 nM
T1 construct: also called hTNF; human TNFα
Method: Recombinant rat/mouse chimeric IgG and Fab molecules were screened in the HEK-293-CD40-BLUE reporter assay at a number of concentrations to enable the calculation of EC50 values and determine the maximum percentage inhibition. […] IgG were also analysed in a Biacore experiment to determine binding affinities for human TNF. The assay format of the Biacore experiment was capture of the mouse IgG by immobilised anti-mouse IgG-Fc then titration of human TNF over the captured surface. BIA (Biamolecular Interaction Analysis) was performed using a Biacore T200 (GE Healthcare). Affinipure F(ab′)2 Fragment goat anti-mouse IgG, Fc fragment specific (Jackson ImmunoResearch) was immobilised on a CM5 Sensor Chip via amine coupling chemistry to a level of ˜5000 response units (RUs). HBS-EP buffer (10 mM HEPES pH 7.4, 0.15 M NaCl, 3 mM EDTA, 0.05% Surfactant P20, GE Healthcare) was used as the running buffer with a flow rate of 10 μL/min. A 10 μL injection of mouse IgG at 0.5 μg/mL was used for capture by the immobilised anti-mouse IgG-Fc. Human TNF, was injected over the captured mouse IgG twice at 20 nM at a flow rate of 30 μL/min. The surface was regenerated by 2×10 μL injection of 40 mM HCl, interspersed by a 5 μL injection of 5 mM NaOH at a flowrate of 10 μL/min. Background subtraction binding curves were analysed using the T200evaluation software (version 1.0) following standard procedures.
Neutralisation was determined using the HEK-293-CD40-BLUE reporter assay (Invivogen). […] Biacore analysis was performed to determine binding kinetics.

[2] = target: T1, human TNF-alpha; test: cell-based or functional assay
[3] = target: T1, human TNF-alpha; test: SPR (Biacore T200), Fab captured by anti-human F(ab')2, human TNF at 5 nM
Method: (§1) The assay format of the Biacore experiment was capture of the rat/human chimeric Fabs by immobilised anti-human F(ab′) then titration of human or cynomolgus TNF over the captured surface. BIA (Biamolecular Interaction Analysis) was performed using a Biacore T200 (GE Healthcare). Affinipure F(ab′)2 Fragment goat anti-human IgG-F(ab′)2 fragment specific (Jackson ImmunoResearch) was immobilised on a CM5 Sensor Chip via amine coupling chemistry to a level of ˜5000 response units (RUs). HBS-EP buffer (10 mM HEPES pH 7.4, 0.15 M NaCl, 3 mM EDTA, 0.05% Surfactant P20, GE Healthcare) was used as the running buffer with a flow rate of 10 μL/min. A 10 μL injection of rat/human chimeric at 0.5 μg/mL was used for capture by the immobilised human IgG-F(ab′)2. Human or cynomolgus TNF, was injected over the captured rat/human chimeric Fab at (5 nM or 3.125 nM respectively) at a flow rate of 30 μL/min. The surface was regenerated by 2×10 μL injection of 50 mM HCl, interspersed by a 5 μL injection of 5 mM NaOH at a flowrate of 10 μL/min. Background subtraction binding curves were analysed using the T200evaluation software (version 1.0) following standard procedures.

[4] = target: T2, cynomolgus TNF-alpha (cynomolgus, UniProt P79337 77-233); test: SPR (Biacore T200), Fab captured by anti-human F(ab')2, cynomolgus TNF at 3.125 nM
T2 construct: also called cyno TNF; cTNF
Method: as §1

Kd [1]: 0.025 nM
koff [1]: 0.000119 s⁻¹
kon [1]: 4.7e+06 M⁻¹ s⁻¹
EC50 (ng/ml), HEK-293-CD40-BLUE reporter assay [2]: 0.31 ng/mL
B1: CA2109 IgG (recombinant rat/mouse chimeric IgG, rat variable regions on mouse gamma-1 / mouse kappa) (antibody, V domains shown)
VH: EVQLHQSGAALVKPGASVKLSCKTSGYTFTDNYIHWVKQSPGKSLEWIGYINPSSAYAHYNEKFKTKATLTVDKSTNTAYMELSRLTSEDSATYFCTRRYYSAMPFAYWGQGTLVTVSS
VL: DIVMTQSPASLSASLGETVTIECRASEDIYNGLAWYQQKPGKSPHLLIYNSNTLHTGVPSRFSGTGSGTQYSLKINSLQSEDVATYFCQQNYDFPLTFGSGTKLELK
notes: Rat variable regions cloned into mouse gamma-1 IgG and mouse kappa expression vectors, expressed in HEK-293; also called fwk18 IgG

Kd [3]: 0.0349 nM and 0.035 nM
koff [3]: 0.000143 s⁻¹
kon [3]: 4.09e+06 M⁻¹ s⁻¹
Kd [4]: 0.0274 nM and 0.027 nM
koff [4]: 0.000102 s⁻¹
kon [4]: 3.71e+06 M⁻¹ s⁻¹
B2: 02109 rat/human chimeric Fab (Fab, V domains shown)
VH: B1 VH
VL: B1 VL
notes: Rat variable regions with human Fab constant regions; not the humanised graft; also called CA2109
